Earlier results, collected in paper PMC1513386.
Read-outs that look alike come from different tables or passages of the source.

Legend:
Glu115 = Glu115 (UniProt position 142, SKKPKENPGPA); test: NMR
Glu96 = Glu96 (UniProt position 123, DHYLLEFPTFP); test: NMR
Asp101 [1] = target: Asp101 (UniProt position 148, IYKTTDHYQTF); details: not stated (values are paired with the folded structure 1A2P; ref 20 covers native and denatured states)
Asp54 = Asp54 (UniProt position 101, KSIGGDIFSNR); details: not stated (values are paired with the folded structure 1A2P; ref 20 covers native and denatured states)
Asp93 = Asp93 (UniProt position 140, ILYSSDWLIYK); details: not stated (values are paired with the folded structure 1A2P; ref 20 covers native and denatured states)
Glu73 = Glu73 (UniProt position 120, GRTWREADINY); details: not stated (values are paired with the folded structure 1A2P; ref 20 covers native and denatured states)
Asp21 = Asp21 (UniProt position 41, VSILSDASFNQ); test: NMR
Asp30 = Asp30 (UniProt position 50, NQCSTDSGYSM); test: NMR
Asp72 = Asp72 (UniProt position 92, NPPNCDLTVPT); test: NMR
Asp101 [2] = target: Asp101 (UniProt position 129, GTVKSDGGTYD)
Asp106 = Asp106 (UniProt position 134, DGGTYDIYTTT)
Asp11 = Asp11 (UniProt position 39, WQNWTDGGGIV)
Asp83 = Asp83 (UniProt position 111, EYYVVDSWGTY)
Glu172 = Glu172 (UniProt position 200, QVMATEGYQSS)
Asp44 = Asp44 (UniProt position 44, AARQPDLIPLL); test: NMR
Asp61 = Asp61 (UniProt position 61, VMGLVDAIPMI); test: NMR
Asp7 = Asp7 (UniProt position 7, ENLNMDLLYMA); test: NMR
Glu2 = Glu2 (UniProt position 2, ----MENLNMD); test: NMR
Glu37 = Glu37 (UniProt position 37, GGKFLEGAARQ); test: NMR
Asp18 = Asp18 (UniProt position 36, KRLGLDNYRGY); test: NMR
Asp48 = Asp48 (UniProt position 66, TNRNTDGSTDY); test: NMR
Asp66 = Asp66 (UniProt position 84, RWWCNDGRTPG); test: NMR
Asp87 = Asp87 (UniProt position 105, ALLSSDITASV); test: NMR
Glu35 = Glu35 (UniProt position 53, CAAKFESNFNT); test: NMR
Glu7 = Glu7 (UniProt position 25, VYGRCELAAAM); test: NMR
Asp10 = Asp10 (UniProt position 10, VEIFTDGSCLG); test: NMR
Asp102 = Asp102 (UniProt position 102, PVKNVDLWQRL); test: NMR
Asp148 = Asp148 (UniProt position 148, NPTLEDTGYQV); test: NMR
Asp70 = Asp70 (UniProt position 70, VILSTDSQYVR); test: NMR
Asp59 = Asp59 (UniProt position 80, VCCSTDKCN--)
Asp26 = Asp26 (UniProt position 26, KLVVVDFSATW)
Glu6 = Glu6 (UniProt position 6, MVKQIESKTAF); details: listed under PDB 1TRS; redox state not stated in the article, and 1TRS is the oxidised form (inferred)
Glu68 = Glu68 (UniProt position 68, QDVASECEVKC)
[3] = listed under PDB 1TRS, redox state not stated in the article, and 1TRS is the oxidised form (inferred)
[4] = listed under PDB 1TRW, redox state not stated in the article, and 1TRW is the reduced form (inferred)

## Alpha-sarcin (cytotoxic ribonuclease) (Aspergillus giganteus)
Glu115
  pKa: 4.90
Glu96
  pKa: 5.10

## Barnase (ribonuclease) (Bacillus amyloliquefaciens)
Asp101 [1]
  pKa: 2.00
Asp54
  pKa: 2.00
Asp93
  pKa: 2.00
Glu73
  pKa: 2.10

## Beta-elicitin cryptogein (Phytophthora cryptogea)
Asp21
  pKa: 2.50
Asp30
  pKa: 2.50
Asp72
  pKa: 2.60

## Endo-1,4-beta-xylanase (Bacillus circulans xylanase) (Bacillus circulans)
Asp101 [2]
  pKa: 2.00
Asp106
  pKa: 2.70
Asp11
  pKa: 2.50
Asp83
  pKa: 2.00
Glu172
  pKa: 6.70

## F1Fo ATP synthase subunit c (Escherichia coli)
Asp44
  pKa: 5.60
Asp61
  pKa: 7.00
Asp7
  pKa: 5.60
Glu2
  pKa: 5.50
Glu37
  pKa: 5.50

## Lysozyme C (turkey egg white) (Meleagris gallopavo)
Asp18
  pKa: 2.70
Asp48
  pKa: 2.50
Asp66
  pKa: 2.00
Asp87
  pKa: 2.10
Glu35
  pKa: 6.10
Glu7
  pKa: 2.70

## Ribonuclease HI (Escherichia coli)
Asp10
  pKa: 6.10
Asp102
  pKa: 2.00
Asp148
  pKa: 2.00
Asp70
  pKa: 2.60

## Snake cardiotoxin (PDB 1KXI, cardiotoxin V / A5) (Naja atra)
Asp59
  pKa: 2.30

## Thioredoxin (Homo sapiens)
Asp26; [3]
  pKa: 8.10
Asp26; [4]
  pKa: 9.90
Glu6
  pKa: 4.90
Glu68; [3]
  pKa: 5.10
Glu68; [4]
  pKa: 4.90
